# Data reported in US20210009963A1 (LYSENTECH, published 2021).
# T1: wild type bacteriophage T7 (bacteriophage T7, UniProt P19726 1-345; P19727 1-398)
# T1 construct: Whole phage particle without a homing peptide, used as the control; also called WT T7; wild type T7
# T1 sequence 1: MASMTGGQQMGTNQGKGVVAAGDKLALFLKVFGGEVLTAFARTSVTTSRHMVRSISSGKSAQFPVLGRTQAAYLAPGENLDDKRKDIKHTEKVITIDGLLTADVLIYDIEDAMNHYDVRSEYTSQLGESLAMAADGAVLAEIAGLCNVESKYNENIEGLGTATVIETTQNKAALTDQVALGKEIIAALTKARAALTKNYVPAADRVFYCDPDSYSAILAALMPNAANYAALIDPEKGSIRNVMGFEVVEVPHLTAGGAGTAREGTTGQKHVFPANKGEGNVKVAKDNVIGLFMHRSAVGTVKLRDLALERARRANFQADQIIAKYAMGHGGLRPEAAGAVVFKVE
# T1 sequence 2: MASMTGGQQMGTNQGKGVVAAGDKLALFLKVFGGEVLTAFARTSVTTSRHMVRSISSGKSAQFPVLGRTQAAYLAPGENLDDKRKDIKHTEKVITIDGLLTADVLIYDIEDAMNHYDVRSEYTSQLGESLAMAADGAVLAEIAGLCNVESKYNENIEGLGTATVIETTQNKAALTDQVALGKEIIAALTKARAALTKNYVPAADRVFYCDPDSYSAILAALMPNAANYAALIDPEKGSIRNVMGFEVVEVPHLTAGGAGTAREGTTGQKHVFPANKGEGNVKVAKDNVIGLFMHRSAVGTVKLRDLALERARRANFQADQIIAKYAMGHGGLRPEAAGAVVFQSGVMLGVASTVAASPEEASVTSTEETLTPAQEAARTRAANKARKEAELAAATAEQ
# B1: grp78 on B16F10 mouse melanoma cells (receptor)
# chain: not shown
# notes: whole, on cells; The assay was done on whole B16F10 cells; also called receptor for pep42; B16F10 cells
# Target: T1, wild type bacteriophage T7
# Test: confocal fluorescence microscopy of B16F10 cells, anti-T7 antibody staining after washing
binder,measurement,value
B1,binding result,no binding (tested: 1×10^7 PFU of phages)
